This experiment concerns the target pre-existing anti-drug antibodies (ADA) present in human sera. Kind of experiment: ELISA pre-existing ADA binding assay, confirmatory setup, test molecule coated, 20 human sera.

Among the data in patent US20240084039A1 are % positives of total tested serum samples and No of positive serum samples above 30% CCP (serum samples) values, retold here.

Changes are numbered by the printed parent chain.

B1: PRO2922 (scFv)
scFv: DIQMTQSPSSLSASVGDRVTITCQASESIYSSLAWYQQKPGKAPKLLIYLASTLASGVPSRFSGSGSGTDFTLTISSLQPEDFATYYCQSTDYTTSTHRNSFGTGTKVTVLGGGGGSGGGGSGGGGSGGGGSEVQLVESGGGRVQPGGSLRLSCAASGFSFSTTYYMCWVRQAPGKGLEWIGCTNTASSVRTYYATWAKGRFTISRDNSKNTVYLQMNSLRAEDTAVYYCARDMGFADYALNLWGQGTLVTVSS
B1: the % positives of total tested serum samples came out at 10% and the No of positive serum samples above 30% CCP (serum samples) stood at 2.

B2: PRO2924 (scFv)
scFv: B1 scFv with R143L, L249Q
B2 came in with a % positives of total tested serum samples of 75% and a No of positive serum samples above 30% CCP (serum samples) of 15.

B3: PRO2921 (scFv)
scFv: B1 scFv with R143L, V227T, L249Q
On to B3, for which the % positives of total tested serum samples came to 55% and the No of positive serum samples above 30% CCP (serum samples) was 11.

B4: PRO2918 (scFv)
scFv: B1 scFv with V227T, L249Q
B4: the % positives of total tested serum samples is 25% and the No of positive serum samples above 30% CCP (serum samples) was determined as 5.

B5: PRO2919 (scFv)
scFv: B1 scFv with V227T
With B5, the % positives of total tested serum samples was 5% and the No of positive serum samples above 30% CCP (serum samples) was 1.

B6: PRO2920 (scFv)
scFv: B1 scFv with L249Q
On to B6, for which the % positives of total tested serum samples was found to be 10% and the No of positive serum samples above 30% CCP (serum samples) is 2.

B7: PRO2925 (scFv)
scFv: B1 scFv with R143S, V227T, L249Q
B7: the % positives of total tested serum samples came out at 25% and the No of positive serum samples above 30% CCP (serum samples) came out at 5.

B8: PRO2907 (scFv)
scFv: DIQMTQSPASLSASVGDRVTITCQASQSIGTYLAWYQQKPGKPPKLLIYRAFILASGVPSRFSGSGSGTDFTLTISSLQPEDFATYYCQSNFYSDSTTIGPNAFGTGTKVTVLGGGGGSGGGGSGGGGSGGGGSEVQLVESGGGRVQPGGSLRLSCAASGFSFNSDYWIYWVRQAPGKGLEWIASIYGGSSGNTQYASWAQGRFTISRDNSKNTVYLQMNSLRAEDTAVYFCARGYVDYGGATDLWGQGTLVTVSS
Turning to B8, the % positives of total tested serum samples is 15% and the No of positive serum samples above 30% CCP (serum samples) turned out to be 3.

B9: PRO2903 (scFv)
scFv: B8 scFv with V229T, L251Q
For B9, the % positives of total tested serum samples amounted to 30% and the No of positive serum samples above 30% CCP (serum samples) came to 6.

B10: PRO2909 (scFv)
scFv: B8 scFv with R145L, L251Q
In turn, B10 displayed a % positives of total tested serum samples of 50% and a No of positive serum samples above 30% CCP (serum samples) of 10.

B11: PRO2926 (scFv)
scFv: B8 scFv with R145S, V229T, L251Q
B11 returned a % positives of total tested serum samples of 40% and a No of positive serum samples above 30% CCP (serum samples) of 8.

B12: PRO2905 (scFv)
scFv: B8 scFv with L251Q
In turn, B12 yielded a % positives of total tested serum samples of 20% and a No of positive serum samples above 30% CCP (serum samples) of 7.

B13: PRO2906 (scFv)
scFv: B8 scFv with R145L, V229T, L251Q
Molecule B13 returned a % positives of total tested serum samples of 95% and a No of positive serum samples above 30% CCP (serum samples) of 19.
